Consider three substances from patent publication US20250387474A1.

Assay [1] concerns the target human IL-13Rα2 (human) (UniProt Q14627). Put plainly: SPR on immobilized ligands with receptors as flow analytes using MCK, top trace marked 250 nM.
Assay [2] has as its target human IL-13Rα1 (human) (UniProt P78552). Put plainly: SPR on immobilized ligands with receptors as flow analytes using MCK, top trace marked 1000 nM.
Assay [3] shares this target. In words: SPR, construct captured on anti-human IgG (Fc) antibody on a CM5 chip, human receptor as analyte.
The target in assay [4] is human IL-13Rα2 (human) (UniProt Q14627). Described as above.
For assay [5], the target named is T1, human IL-2R beta (CD122) (human) (UniProt P14784).
T1 sequence (looked up): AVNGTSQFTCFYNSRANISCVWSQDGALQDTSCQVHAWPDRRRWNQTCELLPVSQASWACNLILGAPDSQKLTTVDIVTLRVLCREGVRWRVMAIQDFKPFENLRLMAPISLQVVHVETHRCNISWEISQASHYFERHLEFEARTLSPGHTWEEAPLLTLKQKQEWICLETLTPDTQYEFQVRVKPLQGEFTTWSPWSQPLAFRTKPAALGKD
In words: BLI (Octet).

Chain of human IL-13Rα2 (human) (Q14627 27-343 limits assumed): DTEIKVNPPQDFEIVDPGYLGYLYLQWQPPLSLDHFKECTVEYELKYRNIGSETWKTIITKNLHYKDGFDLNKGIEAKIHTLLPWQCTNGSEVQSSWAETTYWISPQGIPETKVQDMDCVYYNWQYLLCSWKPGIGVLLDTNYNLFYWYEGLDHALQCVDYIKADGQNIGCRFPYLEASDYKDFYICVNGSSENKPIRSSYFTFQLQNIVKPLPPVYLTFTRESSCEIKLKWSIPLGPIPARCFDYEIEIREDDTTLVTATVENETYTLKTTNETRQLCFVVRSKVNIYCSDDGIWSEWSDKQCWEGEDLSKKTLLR
Chain of human IL-13Rα1 (human) (P78552 22-343 limits assumed): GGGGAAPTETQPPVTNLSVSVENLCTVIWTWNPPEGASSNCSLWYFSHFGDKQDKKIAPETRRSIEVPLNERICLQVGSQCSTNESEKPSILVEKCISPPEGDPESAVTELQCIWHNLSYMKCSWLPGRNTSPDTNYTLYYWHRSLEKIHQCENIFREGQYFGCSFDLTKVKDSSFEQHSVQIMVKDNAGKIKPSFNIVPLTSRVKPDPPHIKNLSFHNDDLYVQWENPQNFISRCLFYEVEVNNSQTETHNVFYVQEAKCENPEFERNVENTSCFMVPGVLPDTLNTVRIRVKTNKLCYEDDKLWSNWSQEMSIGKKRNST

As for “Fc-IL13 (wild-type IL-13 with Fc tag, comparator; format not stated) (Fc fusion)”, the Kd turned out to be 0.69 nM with human IL-13Rα2 (human) [1], 202 nM with human IL-13Rα1 (human) [2], 237 nM with human IL-13Rα1 (human) [3] and 0.6 nM with human IL-13Rα2 (human) [4].

On to MDNA11 (MDNA109FEAA-Albumin), for which, in assay [5], the Kd came to 11 nM.

Take VivoTag800-MDNA11: the Kd in assay [5] turned out to be 7 nM.
